The values that follow come from publication PMC12004154, “Overexpression, Purification, and Biochemical Characterization of the vanC2 D-Ala-D-Ser Ligase from Enterococcus casseliflavus SSK and Its Inhibition by an Oxadiazole Derivative” (ACS Omega, 2025).

Series [1] concerns N[C@H](CO)C(=O)O. Description: Michaelis-Menten kinetics (Km2), inorganic phosphate detection assay. The series is classed as biochemical, Enterococcus casseliflavus. To be noted: ATP, MgCl2 subsite […] (second substrate binding site).
In series [2] the test system is C[C@@H](N)C(=O)O. The series is described as follows: Michaelis-Menten kinetics (Km1), inorganic phosphate detection assay. The series is classed as biochemical, Enterococcus casseliflavus. To be noted: ATP, MgCl2 subsite […] (first substrate binding site).
For series [3], the system named is Nc1ncnc2c1ncn2[C@@H]1O[C@H](COP(=O)(O)OP(=O)(O)OP(=O)(O)O)[C@@H](O)[C@H]1O. The series is described as follows: Michaelis-Menten kinetics (Km), inorganic phosphate detection assay. The following applies: MgCl2. The series is classed as biochemical, Enterococcus casseliflavus.
Series [4] has as its target T1, vanC2 D-Ala-D-Ser ligase (EcfDdls) (Enterococcus casseliflavus, UniProt Q47720).
T1 construct: C-terminal 6x His-tagged EcfDdls, strain SSK, ~39 kDa
The series is described as follows: malachite green inorganic phosphate detection assay with purified enzyme. The series is classed as biochemical.

Where two headings read alike, the source gives them in different places.

T1 sequence (Q47720 whole entry): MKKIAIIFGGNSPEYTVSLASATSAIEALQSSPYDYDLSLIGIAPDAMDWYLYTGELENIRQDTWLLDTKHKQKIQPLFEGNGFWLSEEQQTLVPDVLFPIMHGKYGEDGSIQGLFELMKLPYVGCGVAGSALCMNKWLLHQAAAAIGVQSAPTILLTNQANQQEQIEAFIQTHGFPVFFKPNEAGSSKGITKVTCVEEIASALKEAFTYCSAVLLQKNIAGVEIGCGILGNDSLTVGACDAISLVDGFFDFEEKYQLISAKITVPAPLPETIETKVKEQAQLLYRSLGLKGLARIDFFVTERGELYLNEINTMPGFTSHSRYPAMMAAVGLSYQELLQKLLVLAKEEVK

With “vanC2 D-Ala-D-Ser ligase (EcfDdls) (Enterococcus casseliflavus)”, the Km in series [1] worked out at 0.8 ± 0.1 mM; in series [2], 1.12 ± 0.1 mM; in series [3], 24.31 ± 4.1 µM.

Take `Cc1cc(CN2CCN(Cc3nc(C(C)C)no3)CC2)no1` [CID 45805715, 1-[(5-methyl-1,2-oxazol-3-yl)methyl]-4-{[3-(propan-2-yl)-1,2,4-oxadiazol-5-yl]methyl}piperazine]: in series [4] (read-out: IC50), the 50% inhibitory concentration (IC50) amounted to 76.7 ± 1.01 µM.

The compound `N[C@@H]1CON=C1O` [DCS, D-cycloserine] registered an IC50 in series [4] of 313 ± 1.6 µM.

In general, Km refers to the substrate concentration at which the rate is half of its maximum. For orientation: IC50 means the concentration needed to halve the response being measured.
